Laboratory results from article PMC4351431, “Pharmacokinetics of diluted (U20) insulin aspart compared with standard (U100) in children aged 3–6 years with type 1 diabetes during closed-loop insulin delivery: a randomised clinical trial” (Diabetologia, 2014).
Read-outs that look alike come from different tables or passages of the source.

Legend:
[1] = cited from earlier work; for MCR I / ins c: published literature, closed-loop insulin delivery
Description: Similar estimates of MCR I and ins c were also found in the current study and published literature (1.94 vs 1.68 × 10^−2 vs 1.90 × 10^−2 1/kg/min for MCR I, 29 vs 28 vs 61 pmol/l for ins c). In the present study, MCR I values in the two visits were highly correlated (r = 0.918, p < 0.001), as were the ins c values ...

[2] = design: method as in PMID 23278690; conditions: pig, in vivo, sc; cited from earlier work
[3] = Insulin aspart pharmacokinetics during closed-loop insulin delivery, two-compartment modelling of plasma insulin; design: species or system human; conditions: in vivo
Experimental: Children were admitted in the afternoon on two study visits, 2–6 weeks apart, at the Wellcome Trust Clinical Research Facility, Addenbrooke’s Hospital, Cambridge, to undergo closed-loop insulin delivery from 17:00 hours until 8:00 hours the following morning. On both occasions, the children consumed identical evening meals at 17:00 hours [44 ± 12 g carbohydrate] and optional bedtime snacks [6 ± 7 g carbohydrate]. Standard pump bolus calculators were used to calculate meal insulin boluses and basal rates on the insulin pump (Animas 2020, Johnson & Johnson, PA, USA) were adjusted every 15 min according to the output of a model predictive control algorithm informed by real-time continuous glucose monitoring values (Dexcom G4, Dexcom, CA, USA). Standard strength (100 U/ml) insulin aspart (Novo Nordisk, Bagsvaerd, Denmark) was infused at one visit and diluted aspart (0.9% saline [154 mmol/l NaCl] at 1:5 ratio, 20 U/ml) was administered at the other; the order of the two interventions was random. […]
Venous blood samples were taken at −30, 0, 30, 60, 90, 120, 180, 240, 300, 360, 420, 480, 540, 600, 660, 720, 780, 840 and 900 min relative to 17:00 hours for measuring the plasma insulin concentration. […] Plasma insulin was measured using an immunochemiluminometric assay (Invitron, Monmouth, UK; intra-assay CV 4.7%, interassay CV 7.2–8.1%; 100% cross reactivity with insulin aspart). Fasting C-peptide levels were measured at plasma glucose values above 6 mmol/l by ELISA (Mercodia, Uppsala, Sweden).
Aspart pharmacokinetics was assessed using a two-compartment model measuring the time-to-peak of plasma insulin concentration (t max), metabolic clearance rate of insulin (MCR I), and background plasma insulin concentration (ins c). […]
Differences between pharmacokinetic parameters were assessed by paired t test (for normally distributed variables) or the Wilcoxon signed-rank test (for non-normally distributed variables). […] The Spearman’s rank correlation evaluated correlations between pharmacokinetic and demographic indices. […]

## B28Asp human insulin [insulin aspart]
[1]; adults with type 1 diabetes, during closed-loop insulin delivery
  t max: 51 min
[1]; older children with type 1 diabetes, during closed-loop insulin delivery
  t max: 66 min
[1]; ref 7
  MCR I: 0.0168 kg⁻¹ min⁻¹
  ins c: 28 pmol/L
[1]; ref 8
  MCR I: 0.019 kg⁻¹ min⁻¹
  ins c: 61 pmol/L
[1]; type 1 diabetes, following insulin bolus injection
  t max: 49 min
[2]
  effect of concentration on insulin aspart pharmacokinetics: no significant difference between U200, U100 and U20
[3]; human
  mean value of t max in the present study: 60.4 min
[3]
  MCR I in the current study: 19.4 mL/min/kg
  ins c in the current study: 29 pmol/L
